Measurements from WO1999010379A1 (dated 1999).

Tests used:
[1] = target: T1, monoclonal antibody SM3 (secreted by the hybridoma HSM3, ECACC accession no. 87010701); experiment: inhibition ELISA: SM3 at 1 ug/ml incubated with increasing peptide, binding to the fusion protein with seven MUC1 tandem repeats
T1 construct: The general ELISA method detects it with goat anti-mouse (Fc specific) conjugate; also called SM3 antibody

[2] = target: T1, monoclonal antibody SM3 (secreted by …); experiment: inhibition ELISA of SM3 (1 ug/ml) binding to the fusion protein with seven MUC1 tandem repeats

T1 sequence (VH, as listed by the source limits assumed, chain 1 of 2): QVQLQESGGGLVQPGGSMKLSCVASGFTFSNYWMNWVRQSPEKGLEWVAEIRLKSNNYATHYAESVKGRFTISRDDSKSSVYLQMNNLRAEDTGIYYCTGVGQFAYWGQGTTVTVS
T1 sequence (VL, as listed by the source limits assumed, chain 2 of 2): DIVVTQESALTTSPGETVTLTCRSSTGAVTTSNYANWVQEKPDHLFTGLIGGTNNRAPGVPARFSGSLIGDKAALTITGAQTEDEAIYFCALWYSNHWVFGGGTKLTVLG

B1: MUC1 peptide Thr-Ser-Ala-Pro-Asp-Thr-Arg-Pro-Ala-Pro-Gly-Ser-Thr ("the crystal peptide") (peptide)
peptide: TSAPDTRPAPGST
notes: Non-glycosylated peptide; also called MUCl peptide; MUCl peptide antigen
With B1 the “Apparent Ka” value [1] was ~24 µM and the IC50 [1] was ~30 µg/mL.

ARPTGTSDPTPAS: no binding (tested: approximately 30μg/ml) [2].
